Results on two molecules are retold here after US20220242962A1 (APTEVO RESEARCH AND DEVELOPMENT, published 2022).

In test [1] the target is T1, C1Q (UniProt P02745 23-245; P02746 28-253; P02747 29-245).
T1 construct: also called complement C1Q
The experiment in a line: SPR, Fc captured, C1Q as analyte. The procedure:
(§1) Fc mutations to be potentially integrated into an ADAPTIR™ bispecific construct were analyzed for binding to the common Fc receptors (human and cyno) and C1Q, which is a component of the complement activation system. SPR experiments were conducted at 25° C. in HBS-EP+ buffer on a Biacore T200 system.
(§2) For these experiments, all four flow cells of a CM5 sensor chip were immobilized with goat F(ab′)2 anti-human Fc (Jackson ImmunoResearch) to a response level of ˜4000 RU. Fc variants and wild type Fc were diluted to 100 nM in HBS-EP+ and captured on the surface of the chip for 120 seconds at a flow rate of 10 μL/min. Fcγ receptors (human and cyno, all purchased from R&D Systems) and complement (C1Q, purchased from Quidel Corporation and Complement Technology, Inc) were diluted in HBS-EP+ and then flowed as analytes at 30 μL/min for 120 seconds followed by a 120 seconds dissociation. Regeneration was achieved by flowing 10 mM glycine pH 1.7 at 30 μL/min for 30 seconds followed by a 60 seconds stabilization. Flow cell 1 was always left as a blank (no captured protein) for purposes of background signal subtraction. Blank-subtracted sensorgrams for each captured Fc variant were inspected for the presence of binding to any of the Fcγ receptor proteins or complement. There are polymorphisms in the Human Fc receptors IIA and RIIIA, so both sequences were tested for binding.
(SPR reads the build-up and loss of mass on a sensor chip optically.)

For test [2], the target named is T2, Cyno RI (cynomolgus monkey, UniProt Q8SPW5 16-292).
T2 construct: also called cyno RI receptor
T2 sequence (Q8SPW5 entry or part of it limits assumed): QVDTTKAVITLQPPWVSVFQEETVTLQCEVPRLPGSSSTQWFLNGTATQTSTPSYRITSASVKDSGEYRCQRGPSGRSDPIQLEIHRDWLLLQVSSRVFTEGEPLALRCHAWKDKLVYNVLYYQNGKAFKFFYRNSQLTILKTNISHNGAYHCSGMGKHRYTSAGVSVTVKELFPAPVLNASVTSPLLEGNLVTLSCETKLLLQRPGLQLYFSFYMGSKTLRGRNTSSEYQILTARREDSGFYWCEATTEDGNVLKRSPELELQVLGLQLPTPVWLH
In words: SPR, Fc captured, receptor as analyte. Here is the method:
as §2

The target of test [3] is T3, Cyno RIII (cynomolgus monkey, UniProt Q8SPW2 17-208).
T3 construct: extracellular domain
T3 sequence (Q8SPW2 17-208): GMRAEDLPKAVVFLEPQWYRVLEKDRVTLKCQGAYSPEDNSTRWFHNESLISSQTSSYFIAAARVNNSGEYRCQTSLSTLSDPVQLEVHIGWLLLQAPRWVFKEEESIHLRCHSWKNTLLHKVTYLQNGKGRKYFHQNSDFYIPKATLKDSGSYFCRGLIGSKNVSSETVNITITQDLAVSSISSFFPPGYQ
The experiment in a line: SPR, Fc captured, receptor as analyte. The procedure: as §2

Test [4] has as its target T4, Fc gamma receptor RI (human, UniProt P12314 16-288).
T4 construct: also called FcγRI
The experiment in a line: SPR, Fc captured, receptor as analyte, relative to wild type Fc. The procedure: as §1, §2

The target of test [5] is T5, Full-length Human OX40 (human, UniProt P43489 29-277).
T5 construct: also called OXF001; human OX40/CHO
T5 sequence: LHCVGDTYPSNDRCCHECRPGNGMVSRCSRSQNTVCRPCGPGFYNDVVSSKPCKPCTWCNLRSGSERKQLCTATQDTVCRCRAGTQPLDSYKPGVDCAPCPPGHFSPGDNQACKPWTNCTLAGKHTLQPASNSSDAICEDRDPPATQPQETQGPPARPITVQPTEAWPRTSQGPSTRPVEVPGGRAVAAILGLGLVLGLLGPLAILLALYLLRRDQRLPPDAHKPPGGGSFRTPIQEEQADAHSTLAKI
The experiment in a line: flow cytometry, CHO cells expressing human OX40. In general terms: Flow cytometry measures light scatter and fluorescence of single cells or particles in a stream.

In test [6] the target is Full-length Human 4-1BB (human, UniProt Q07011 24-255). In words: cell-based or functional assay.
Sequence of Full-length Human 4-1BB (Q07011 24-255): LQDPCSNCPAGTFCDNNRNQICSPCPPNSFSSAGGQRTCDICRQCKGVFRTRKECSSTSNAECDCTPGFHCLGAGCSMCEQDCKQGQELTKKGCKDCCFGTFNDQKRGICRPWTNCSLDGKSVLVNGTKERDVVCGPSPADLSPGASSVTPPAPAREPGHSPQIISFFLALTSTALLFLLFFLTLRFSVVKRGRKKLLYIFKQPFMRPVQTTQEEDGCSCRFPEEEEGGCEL
For test [7], the target named is T5, Full-length Human OX40. In words: cell-based or functional assay.
The target of test [8] is T5, Full-length Human OX40. The experiment in a line: flow cytometry, CHO cells expressing human OX40. The source holds these as a separate data set.

Where two headings read alike, the source gives them in different places.

T1 sequence (P02745 23-245 limits assumed, chain 1 of 3): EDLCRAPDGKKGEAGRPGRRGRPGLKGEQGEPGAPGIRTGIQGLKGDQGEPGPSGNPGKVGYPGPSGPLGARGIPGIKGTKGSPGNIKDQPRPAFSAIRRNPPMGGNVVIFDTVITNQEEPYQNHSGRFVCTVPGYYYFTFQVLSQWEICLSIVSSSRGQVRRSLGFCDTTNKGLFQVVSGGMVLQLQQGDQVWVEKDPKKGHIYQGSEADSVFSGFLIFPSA
T1 sequence (P02746 28-253 limits assumed, chain 2 of 3): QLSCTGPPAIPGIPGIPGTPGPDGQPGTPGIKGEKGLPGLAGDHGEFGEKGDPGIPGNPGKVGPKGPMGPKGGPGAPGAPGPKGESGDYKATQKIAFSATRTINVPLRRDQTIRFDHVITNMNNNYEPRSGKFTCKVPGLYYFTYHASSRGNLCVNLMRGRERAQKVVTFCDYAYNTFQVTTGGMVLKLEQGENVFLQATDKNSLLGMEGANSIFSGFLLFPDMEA
T1 sequence (P02747 29-245 limits assumed, chain 3 of 3): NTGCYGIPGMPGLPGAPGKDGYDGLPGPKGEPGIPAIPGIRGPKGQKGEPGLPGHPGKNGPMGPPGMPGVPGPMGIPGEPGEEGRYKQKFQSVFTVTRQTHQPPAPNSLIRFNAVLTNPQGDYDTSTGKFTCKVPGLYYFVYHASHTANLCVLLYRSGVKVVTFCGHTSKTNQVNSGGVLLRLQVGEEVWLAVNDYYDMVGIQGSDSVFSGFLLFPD
T4 sequence (P12314 16-288 limits assumed): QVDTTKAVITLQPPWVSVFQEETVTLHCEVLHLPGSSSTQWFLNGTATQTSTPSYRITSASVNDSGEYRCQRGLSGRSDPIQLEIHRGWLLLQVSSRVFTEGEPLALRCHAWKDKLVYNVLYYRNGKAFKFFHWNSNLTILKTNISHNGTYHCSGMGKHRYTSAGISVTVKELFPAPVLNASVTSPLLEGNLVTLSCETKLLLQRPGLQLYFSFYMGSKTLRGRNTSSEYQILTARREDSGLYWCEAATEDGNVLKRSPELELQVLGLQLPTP

B1: TSC 1005 (other)
chain: EPKSSDKTHTCPPCPAPPVAAPSVFLFPPKPKDTLMISRTPEVTCVVVDVSHEDPEVKFNWYVDGVEVHNAKTKPREEQYNSTYRVVSVLTVLHQDWLNGKEYKCAVSNKALPAPIEKTISKAKGQPREPQVYTLPPSRDELTKNQVSLTCLVKGFYPSDIAVEWESNGQPENNYKTTPPVLDSDGSFFLYSKLTVDKSRWQQGNVFSCSVMHEALHNHYTQKSLSLSPG
notes: IgG1 Fc with E233P, L234V, L235A, deletion of G236, G237A, K322A (EU); also called PVAdel TSC01005
Take B1: the binding result is on record as “no binding” in test [1], “no binding” in test [2], “no binding” in test [3] and “binds” in test [4].

B2: FXX01066 (bispecific antibody)
chain: EVQLVQSGAEVKKPGASVKVSCKASGYTFTSYWMNWVRQAPGQGLEWMGNIYPSGGSTNYAQKFQGRVTMTVDTSTSTVYMELSSLRSEDTAVYYCASFSDGYYAYAMDYWGQGTLVTVSSGGGGSGGGGSGGGGSGGGGSEIVMTQSPATLSLSPGERATLSCRASQSVSSYLNWYQQKPGQAPRLLIYYASRRHTGIPARFSGSGSGTDFTLTISSLQPEDFAVYYCQQGYNLPYTFGQGTKVEIKEPKSSDKTHTCPPCPAPPAAAPSVFLFPPKPKDTLMISRTPEVTCVVVDVSHEDPEVKFNWYVDGVEVHNAKTKPREEQYNSTYRVVSVLTVLHQDWLNGKEYKCAVSNKALPAPIEKTISKAKGQPREPQVYTLPPSRDELTKNQVSLTCLVKGFYPSDIAVEWESNGQPENNYKTTPPVLDSDGSFFLYSKLTVDKSRWQQGNVFSCSVMHEALHNHYTQKSLSLSPGGGGSPSSYVLTQPPSVSVAPGQTARITCGGNNIGSKSVNWFQQKPGQAPVLVVYDDSGRPSGIPERFSGSTSGNTATLTISRVEAGDEADYYCQVWDSSSDHVVFGGGTKLTVLGGGGSGGGGSGGGGSGGGGSQVQLVESGGGVVQPGRSLRLSCAASGFTLSYYGMHWVRQAPGKGLEWVAAISHDGSDKYYADSVKGRFTISRDNSKNTLYLQMNSLRAEDTAVYYCSNDQFDPWGQGTLVTVSSR
notes: ADAPTIR scFv-Fc-scFv, anti-4-1BB (VH-VL) N-terminal, anti-OX40 C-terminal, PAA (del) Fc; also called FX01066
In test [5], B2 had an EC50 of 570 pM. In addition, in test [6], the “4-1BB Reporter Assay EC50” value is 19 pM and the “4-1BB Reporter Assay Max induction” value is 6.1e+06. Besides, in test [7], the “OX40 Reporter Assay EC50” value turned out to be 12 pM and the “OX40 Reporter Assay Max induction” value was 534000. Besides, in test [8], the midpoint of the response, the EC50, lay at 1500 pM and the “Max MFI” value was determined as 8620 MFI.

Broadly, the EC50 is the concentration at which the effect is half-maximal.
